Test [1] addresses HLA-A*31:01. Kind of test: IEDB peptide-MHC binding, purified MHC/competitive/radioactivity; filed as Kd, often an IC50 or EC50 that approximates it; ≥ and ≤ were set here for values at or beyond the usual limits of such assays. As to conditions: source organism: Vaccinia virus WR.
Test [2] deals with HLA-A*68:01. The test is described as above. The following applies: source organism: Vaccinia virus WR.
The target in test [3] is HLA-A*33:01. The description is as above. The following applies: source organism: Vaccinia virus WR.
Test [4] concerns the target HLA-A*11:01. The test is described as above. As to conditions: source organism: Vaccinia virus WR.
The target in test [5] is HLA-A*02:01. The test can be described thus: IEDB peptide-MHC binding, purified MHC/competitive/fluorescence; ≥ and ≤ were set here for values at or beyond the usual limits of such assays.
For test [6], the target named is HLA-A*24:02. Described as above.
For test [7], the target named is HLA-A*03:01. The description is as above.
The target of test [8] is HLA-A*11:01. The test is described as above.
For test [9], the target named is HLA-A*01:01. The test can be described thus: IEDB peptide-MHC binding, purified MHC/competitive/fluorescence; filed as Kd, often an IC50 or EC50 that approximates it; ≥ and ≤ were set here for values at or beyond the usual limits of such assays.
The target of test [10] is HLA-A*23:01. The test can be described thus: IEDB peptide-MHC binding, purified MHC/direct/fluorescence; filed as Kd, often an IC50 or EC50 that approximates it; ≥ and ≤ were set here for values at or beyond the usual limits of such assays.
The target of test [11] is HLA-B*54:01. The test can be described thus: IEDB peptide-MHC binding, purified MHC/competitive/radioactivity; filed as Kd, often an IC50 or EC50 that approximates it; ≥ and ≤ were set here for values at or beyond the usual limits of such assays.
The target of test [12] is HLA-B*07:02. Described as above.
Test [13] has as its target HLA-B*35:01. The description is as above.
The target in test [14] is HLA-B*53:01. The description is as above.
For test [15], the target named is HLA-B*51:01. The description is as above.
The target of test [16] is HLA-B*15:01. Kind of test: IEDB peptide-MHC binding, purified MHC/competitive/fluorescence; ≥ and ≤ were set here for values at or beyond the usual limits of such assays.
In test [17] the target is HLA-A*03:01. Kind of test: IEDB peptide-MHC binding, purified MHC/competitive/fluorescence; filed as Kd, often an IC50 or EC50 that approximates it; ≥ and ≤ were set here for values at or beyond the usual limits of such assays.
Test [18] deals with HLA-C*05:01. The test can be described thus: IEDB peptide-MHC binding, purified MHC/direct/fluorescence; filed as Kd, often an IC50 or EC50 that approximates it; ≥ and ≤ were set here for values at or beyond the usual limits of such assays.
In test [19] the target is HLA-B*15:42. The test can be described thus: IEDB peptide-MHC binding, purified MHC/competitive/fluorescence; filed as Kd, often an IC50 or EC50 that approximates it; ≥ and ≤ were set here for values at or beyond the usual limits of such assays.
For test [20], the target named is HLA-B*83:01. The description is as above.
Test [21] concerns the target HLA-B*45:06. Described as above.
The target in test [22] is HLA-B*18:01. Kind of test: IEDB peptide-MHC binding, purified MHC/direct/fluorescence; filed as Kd, often an IC50 or EC50 that approximates it; ≥ and ≤ were set here for values at or beyond the usual limits of such assays. The following applies: source organism: Yellow fever virus 17D.
The target in test [23] is HLA-B*35:01. The test can be described thus: IEDB peptide-MHC binding, purified MHC/competitive/fluorescence; filed as Kd, often an IC50 or EC50 that approximates it; ≥ and ≤ were set here for values at or beyond the usual limits of such assays.
The target of test [24] is HLA-A*24:03. The test can be described thus: IEDB peptide-MHC binding, purified MHC/direct/fluorescence; filed as Kd, often an IC50 or EC50 that approximates it; ≥ and ≤ were set here for values at or beyond the usual limits of such assays. The following applies: source organism: Vibrio cholerae.
The target in test [25] is HLA-A*02:12. Described as above. The following applies: source organism: Dengue virus 2 Thailand/16681/84.
Test [26] has as its target HLA-A*02:11. The test is described as above. The following applies: source organism: Dengue virus 2 Thailand/16681/84.
In test [27] the target is HLA-B*58:01. The description is as above. As to conditions: source organism: Francisella tularensis subsp. holarctica LVS.
In test [28] the target is HLA-B*57:01. The test is described as above. The following applies: source organism: Francisella tularensis subsp. holarctica LVS.
Test [29] concerns the target HLA-B*15:17. Described as above. As to conditions: source organism: Francisella tularensis subsp. holarctica LVS.
For test [30], the target named is HLA-B*51:01. Kind of test: IEDB peptide-MHC binding, purified MHC/competitive/fluorescence; filed as Kd, often an IC50 or EC50 that approximates it; ≥ and ≤ were set here for values at or beyond the usual limits of such assays. As to conditions: source organism: Mycobacterium tuberculosis H37Ra.
Test [31] deals with HLA-B*07:02. Kind of test: IEDB peptide-MHC binding, purified MHC/direct/fluorescence; filed as Kd, often an IC50 or EC50 that approximates it; ≥ and ≤ were set here for values at or beyond the usual limits of such assays. As to conditions: source organism: Mycobacterium tuberculosis C.
Setting [32] is: source organism: Vaccinia virus Copenhagen.
[33] abbreviates: source organism: Zaire ebolavirus.
[34] abbreviates: source organism: Vaccinia virus.
Setting [35] is: source organism: Lymphocytic choriomeningitis virus (strain Armstrong).
Setting [36] is: source organism: SARS coronavirus Tor2.
[37] abbreviates: source organism: Yellow fever virus.
Where [38] appears, read: source organism: Mammarenavirus choriomeningitidis.
[39] abbreviates: source organism: Vibrio cholerae RC385.
Where [40] appears, read: source organism: Yersinia pestis Nepal516.
The mark [41] stands for this setting: source organism: Sudan ebolavirus.
The mark [42] stands for this setting: source organism: Triticum aestivum.
Setting [43] is: source organism: Vaccinia virus WR.

Consider 36 sequences from the Immune Epitope Database (IEDB).

What is called Kd is a measure of binding affinity in units of concentration. As usually defined, the IC50 is the midpoint of a concentration-inhibition curve. A high value points to lower potency.

Regarding ALKKLIIDR, the Kd in test [1] is 0.00601 µM; in test [2], 6.04 µM; in [3] it was 1.89 µM; in test [4], not below 56.4 µM. Besides, the IC50 in test [5] (setting [32]) is not below 166 µM; in test [6] (setting [32]), not below 3610 µM; in test [7] (setting [32]) it was not below 83.2 µM.

For the sequence EAIVNAQPK, the 50% inhibitory concentration (IC50) in test [8] (setting [33]) is 34.9 µM; in [6] (setting [33]), 28.4 µM.

The sequence FTSFFYRY yielded a Kd in test [9] (source organism: Influenza A virus (A/Fort Monmouth/1/1947-mouse adapted(H1N1))) of 1.28 µM.

In [10] (source organism: dengue virus type 2), GFLNEDHWF registered a Kd of 0.0245 µM.

GKVFAPKQK: the IC50 in [8] (setting [34]) is not below 119 µM; in test [6] (setting [34]) it was 39.5 µM; in test [7] (setting [34]), not below 155 µM.

In the case of GPMMCPFLF, the Kd in test [11] (setting [35]) is 0.764 µM; in test [12] (setting [35]), 0.143 µM; in test [13] (setting [35]) it was 0.767 µM; in [14] (setting [35]), 0.173 µM; in test [15] (setting [35]), 13.5 µM.

Turning to GPQSNQRSA, the Kd was 5.92 µM in test [11] (setting [36]); 0.365 µM in test [12] (setting [36]); 9.79 µM in [13] (setting [36]); not below 78.2 µM in [14] (setting [36]); 8.09 µM in [15] (setting [36]).

In the case of HWLKVWFEW, in [10] (source organism: Vibrio vulnificus CMCP6), the Kd came out at 0.121 µM.

Regarding IMLEGETKL, the IC50 in test [6] (setting [32]) stood at 47.2 µM; in test [16] (setting [32]) it was 42.5 µM.

As for ITHPKYRKH, the Kd in test [17] (source organism: Vibrio vulnificus YJ016) was not below 20 µM.

As for KSDDVEGRF, in test [18] (source organism: Campylobacter upsaliensis RM3195), the Kd is not above 0.001 µM.

Consider KVHAVLTEH, for which the Kd in test [17] (source organism: Brucella abortus 2308) is 0.0944 µM.

For LEDGIYGIF, the Kd in [19] (setting [37]) is not below 5 µM; in [20] (setting [37]) it was not below 5 µM; in test [21] (setting [37]), not below 5 µM; in [22], 0.118 µM.

For the sequence LIAATAITH, the equilibrium dissociation constant (Kd) in test [17] (source organism: Rickettsia felis URRWXCal2) is 0.266 µM.

Take LPFHRWHTMV: the Kd in [11] (setting [36]) is 0.0284 µM; in test [12] (setting [36]), 0.462 µM; in test [13] (setting [36]) it was 7.51 µM; in test [14] (setting [36]), 18.7 µM; in [15] (setting [36]) it was 1.15 µM.

Consider LPIFSDAAL, for which the Kd is 1 µM in [11] (setting [38]); 0.0221 µM in test [12] (setting [38]); 0.0133 µM in [13] (setting [38]); 0.0641 µM in test [14] (setting [38]); not below 64.1 µM in [15] (setting [38]).

On to MMYTVSLGK, for which the Kd was not below 5 µM in [19] (setting [39]), not below 5 µM in test [20] (setting [39]), not below 5 µM in [21] (setting [39]) and 0.0023 µM in test [17] (setting [39]).

Take MPSEDGAEDL: the Kd is not below 69.9 µM in [11] (setting [38]); 1.86 µM in test [12] (setting [38]); 0.148 µM in test [13] (setting [38]); 0.903 µM in [14] (setting [38]); not below 69.6 µM in test [15] (setting [38]).

With MVASQLARY, the equilibrium dissociation constant (Kd) in test [9] (setting [40]) came to 1.23 µM; in [23] (setting [40]), 0.0009 µM; in test [17] (setting [40]), 0.907 µM.

Consider PKETFLQSP, for which the IC50 in test [7] (setting [41]) is not below 174 µM.

With QLRGEELSF, the IC50 in [5] (setting [41]) is not below 87 µM; in [16] (setting [41]), 16.8 µM.

With QLSNTTGRL, the IC50 in test [5] (setting [41]) turned out to be 4.66 µM; in [6] (setting [41]) it was 30.3 µM; in test [16] (setting [41]), 21.8 µM.

Regarding QPYPQSQPQY, the Kd in test [11] (setting [42]) is not below 69.9 µM; in test [12] (setting [42]) it was not below 69.6 µM; in test [13] (setting [42]), 0.323 µM; in test [14] (setting [42]), not below 21.2 µM; in test [15] (setting [42]) it was not below 69.6 µM.

Turning to RPKILSMINY, the Kd is 2.92 µM in test [11] (setting [43]); 3.17 µM in test [12] (setting [43]); 5.74 µM in test [13] (setting [43]); 1.12 µM in [14] (setting [43]); 8.9 µM in test [15] (setting [43]).

Take RYQAQQVEW: the results for the Kd in test [24] and in test [10] (source organism: Vibrio cholerae) were 0.0016 µM and 0.0046 µM, respectively.

As to SFASLFLPK, the IC50 in [8] (setting [33]) is 0.0815 µM; in [6] (setting [33]) it was not below 114 µM; in test [7] (setting [33]) it was 0.677 µM.

Turning to SMVNGVVRL, the values for the Kd in test [25] and in test [26] were 0.013 µM and not above 0.001 µM, respectively.

Regarding TIAGVAGLI, the IC50 in test [5] (setting [33]) is 6.06 µM; in [6] (setting [33]), 2.56 µM; in test [16] (setting [33]) it was not below 165 µM.

The sequence TSADQQSLY showed a Kd in test [9] (source organism: Influenza A virus (A/swine/Quebec/1192/1986(H1))) of 0.021 µM.

In turn, TTITGDSAY yielded a Kd in [9] (source organism: Salmonella enterica subsp. enterica serovar Typhi) of 4 µM.

With VDYGLVSKF, the IC50 was 3.51 µM in test [6] (setting [43]) and not below 278 µM in test [16] (setting [43]).

For the sequence VPMEKLKAL, the Kd is 11.7 µM in test [11] (setting [36]); 0.0135 µM in test [12] (setting [36]); 6.61 µM in [13] (setting [36]); not below 39.4 µM in [14] (setting [36]); 2.18 µM in [15] (setting [36]).

As to VPNITISSNA, the Kd in test [11] (setting [43]) is 0.0166 µM; in test [12] (setting [43]) it was 4.2 µM; in [13] (setting [43]), not below 69.9 µM; in [14] (setting [43]), not below 69.9 µM; in test [15] (setting [43]) it was not below 69.6 µM.

Consider YGIAAHWSY, for which the Kd in [23] (source organism: Francisella tularensis subsp. tularensis FSC198) is not above 0.0001 µM; in [27], 0.0475 µM; in test [28], 0.259 µM; in [29] it was 0.0032 µM.

Take YKACHNSEL: the Kd in test [18] (source organism: Pisum sativum) was not below 20 µM.

Turning to YPITGVKSL, the results for the Kd in [23] (source organism: Mycobacterium tuberculosis H37Ra), in [30] and in test [31] were 0.0002 µM, not below 20 µM and 0.0739 µM, respectively.
